Test results taken from US20220298237A1 (KEIO UNIVERSITY, published 2022).
Numbering of substitutions follows the chain as printed. “And” between values parts separate entries of the source, which are not always exact repeats. Equal entries are not always repeated. One block for each binder: values may come before it.

Assays:
[1] = molecular target: T1, oligopeptide ATYPSGHLDM (SEQ ID NO: 1) (human and mouse); test: ELISA on coated peptide
T1 construct: Synthetic peptide; positions 148 to 157 of the human AQP3 polypeptide, identical in mouse; also called peptide used for immunization; oligopeptide 5
T1 peptide: ATYPSGHLDM
Experimental: (§1) To determine the important amino acid residues of an epitope in Loop C involved in binding to specific AQP3 antibody clones, peptides of varying lengths were produced. The sequences of these peptides are shown in column 2 of Table 4.
(§2) The various peptides and AQP3 antibody clones were subjected to ELISA binding analyses. […] The microtiter wells (Costar 2690) were coated with 50 μL of each peptide at 4° C. overnight. The wells were washed 3 times with PBS and blocked with 100 μL of 1% BSA/PBS at 37° C. for 1 hour. Each antibody was adjusted to 1 μg/mL in 1% SBA/PBS as above then serially diluted 1:5 in 1% BSA/PBS. The blocker was discarded and the wells were incubated with 50 μL of antibodies at 37° C. for 1.5 hours. The wells were washed 3 times with PBS and mouse antibodies were detected with 50 μL of goat anti-mouse IgG (H+L) HRP conjugate (ThermoFisher 31438) (1:5,000 in 1% BSA/PBS) and rabbit antibodies were detected with 50 μL of goat anti-rabbit IgG (H+L) HRP conjugate (ThermoFisher 31462) (1:5,000 in 1% BSA/PBS) at 37° C. for 1 hour. The wells were washed 3 times with PBS and developed with 50 μL of HRP substrate at RT for 5 min then stopped with 50 μL of 2N sulfuric acid and binding was measured with a plate reader.

[2] = molecular target: T2, oligopeptide SGPNGTAGIFATYPS (SEQ ID NO: 94); test: ELISA on coated peptide
T2 construct: Synthetic peptide, part of Loop C of AQP3
T2 peptide: SGPNGTAGIFATYPS
Experimental: as §1, §2

[3] = molecular target: T3, oligopeptide TYPSGHLDM (SEQ ID NO: 96); test: ELISA on coated peptide
T3 construct: Synthetic peptide, part of Loop C of AQP3
T3 peptide: TYPSGHLDM
Experimental: as §1, §2

[4] = molecular target: T4, oligopeptide YPSGHLDM (SEQ ID NO: 97); test: ELISA on coated peptide
T4 construct: Synthetic peptide, part of Loop C of AQP3; first diluted in DMSO
T4 peptide: YPSGHLDM
Experimental: as §1, §2

[5] = molecular target: T5, oligopeptide PSGHLDM (SEQ ID NO: 98); test: ELISA on coated peptide
T5 construct: Synthetic peptide, part of Loop C of AQP3
T5 peptide: PSGHLDM
Experimental: as §1, §2

[6] = molecular target: T6, oligopeptide SGHLDM (SEQ ID NO: 99); test: ELISA on coated peptide
T6 construct: Synthetic peptide, part of Loop C of AQP3
T6 peptide: SGHLDM
Experimental: as §1, §2

[7] = molecular target: T7, oligopeptide GHLDM (SEQ ID NO: 100); test: ELISA on coated peptide
T7 construct: Synthetic peptide, part of Loop C of AQP3
T7 peptide: GHLDM
Experimental: as §1, §2

[8] = molecular target: T8, oligopeptide ATYPSGHLD (SEQ ID NO: 101); test: ELISA on coated peptide
T8 construct: Synthetic peptide, part of Loop C of AQP3
T8 peptide: ATYPSGHLD
Experimental: as §1, §2

[9] = molecular target: T9, oligopeptide ATYPSGHL (SEQ ID NO: 102); test: ELISA on coated peptide
T9 construct: Synthetic peptide, part of Loop C of AQP3
T9 peptide: ATYPSGHL
Experimental: as §1, §2

[10] = molecular target: T10, oligopeptide ATYPSGH (SEQ ID NO: 103); test: ELISA on coated peptide
T10 construct: Synthetic peptide, part of Loop C of AQP3
T10 peptide: ATYPSGH
Experimental: as §1, §2

[11] = molecular target: T11, oligopeptide ATYPSG (SEQ ID NO: 104); test: ELISA on coated peptide
T11 construct: Synthetic peptide, part of Loop C of AQP3
T11 peptide: ATYPSG
Experimental: as §1, §2

[12] = molecular target: T12, oligopeptide TAGIFATYPSGHLDM (SEQ ID NO: 105); test: ELISA on coated peptide
T12 construct: Synthetic peptide, part of Loop C of AQP3
T12 peptide: TAGIFATYPSGHLDM
Experimental: as §1, §2

[13] = molecular target: T13, oligopeptide AGIFATYPSGHLDM (SEQ ID NO: 106); test: ELISA on coated peptide
T13 construct: Synthetic peptide, part of Loop C of AQP3
T13 peptide: AGIFATYPSGHLDM
Experimental: as §1, §2

[14] = molecular target: T14, oligopeptide GIFATYPSGHLDM (SEQ ID NO: 107); test: ELISA on coated peptide
T14 construct: Synthetic peptide, part of Loop C of AQP3
T14 peptide: GIFATYPSGHLDM
Experimental: as §1, §2

[15] = molecular target: T15, oligopeptide IFATYPSGHLDM (SEQ ID NO: 108); test: ELISA on coated peptide
T15 construct: Synthetic peptide, part of Loop C of AQP3
T15 peptide: IFATYPSGHLDM
Experimental: as §1, §2

[16] = molecular target: T16, oligopeptide FATYPSGHLDM (SEQ ID NO: 109); test: ELISA on coated peptide
T16 construct: Synthetic peptide, part of Loop C of AQP3
T16 peptide: FATYPSGHLDM
Experimental: as §1, §2

[17] = molecular target: T17, oligopeptide SRGTHGGFL (SEQ ID NO: 2); test: ELISA on peptide SEQ ID NO:2 (FIG. 16B)
T17 construct: Synthetic peptide of AQP3 Loop A; also called Loop A peptide; control peptide
T17 peptide: SRGTHGGFL

[18] = molecular target: T18, human aquaporin 3 (AQP3) on cells (human, UniProt Q92482 1-292); test: fluorescence binding assay on HaCaT cells, 10 µg/mL
T18 construct: whole, on cells; Water channel membrane protein; also called human AQP3; AQP3 on HaCaT cells
T18 sequence (looked up): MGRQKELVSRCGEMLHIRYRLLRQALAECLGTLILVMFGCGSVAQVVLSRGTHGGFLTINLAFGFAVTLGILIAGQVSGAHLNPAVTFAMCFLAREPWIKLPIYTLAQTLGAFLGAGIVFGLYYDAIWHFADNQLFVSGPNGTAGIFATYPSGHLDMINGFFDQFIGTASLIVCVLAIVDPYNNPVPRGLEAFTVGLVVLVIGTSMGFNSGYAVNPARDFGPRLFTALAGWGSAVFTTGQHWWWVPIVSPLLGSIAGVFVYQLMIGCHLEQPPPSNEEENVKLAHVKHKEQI
Experimental: (§3) HaCaT cells were reacted with each anti AQP3 antibody at concentrations of none, 1 ng/mL, 10 ng/mL, 100 ng/mL, 1 μg/mL, or 10 μg/mL at 4° C. for 1 hour. After washing the cells, a fluorescent-labeled secondary antibody was added and the reaction was allowed to occur additionally for 1 hour (at 4° C.). By measuring the fluorescence intensity, the binding property of each anti AQP3 antibody to cells was obtained.

[19] = molecular target: T19, mouse aquaporin 3 (AQP3) on cells (mouse, UniProt Q8R2N1 1-292); test: fluorescence binding assay on PAM212 cells, 10 µg/mL
T19 construct: whole, on cells; Water channel membrane protein; also called mouse AQP3; AQP3 on PAM212 cells
T19 sequence (looked up): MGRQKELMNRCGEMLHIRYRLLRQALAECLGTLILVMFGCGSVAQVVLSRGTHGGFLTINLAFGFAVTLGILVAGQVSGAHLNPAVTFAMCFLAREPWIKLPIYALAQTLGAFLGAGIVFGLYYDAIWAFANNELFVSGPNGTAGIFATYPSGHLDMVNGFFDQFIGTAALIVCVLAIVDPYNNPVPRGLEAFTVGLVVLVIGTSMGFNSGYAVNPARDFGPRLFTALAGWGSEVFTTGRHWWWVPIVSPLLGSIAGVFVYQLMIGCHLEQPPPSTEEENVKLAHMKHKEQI
Experimental: as §3, with “PAM212” for “HaCaT”

[20] = molecular target: T1, oligopeptide ATYPSGHLDM (SEQ ID NO: 1); test: ELISA on peptide SEQ ID NO:1, IgG, 50% binding response (FIG. 16A)
[21] = molecular target: T19, mouse aquaporin 3 (AQP3) on cells; test: fluorescence binding assay on PAM212 cells with AQP3 siRNA (10% of AQP3 expression) against control siRNA, 1 µg/mL (FIG. 19)
Experimental: The resulting siRNA AQP3 cell line had 10% of the AQP3 expression compared to the control siRNA cell line. The siRNA AQP3 and control siRNA PAM212 cells were reacted with SC—F8, BC—H9, BC—B10, and SC—B6 at the chosen concentration 1 μg/mL at 4° C. for 1 hour. After washing the cells, a fluorescent-labeled secondary antibody was added and the reaction was allowed to occur additionally for 1 hour (at 4° C.). By measuring the fluorescence intensity, the binding property of each anti AQP3 antibody to the two cell lines was obtained.
The result of the above experiment is shown in FIG. 19, wherein the vertical axis represents fluorescence intensity, and the mean fluorescence intensity of each sample is represented by bar height together with standard error.

[22] = molecular target: T19, mouse aquaporin 3 (AQP3) on cells; test: fluorescence binding assay on PAM212 cells, 1 ng/mL to 10 µg/mL (FIG. 17A)
Experimental: as §3, with “PAM212” for “HaCaT”

[23] = molecular target: T19, mouse aquaporin 3 (AQP3) on cells; test: cell-based or functional assay

binding signal (plate reader) [1]: 3.98
binding signal (plate reader) [2]: 3.76
binding signal (plate reader) [3]: 3.96
binding signal (plate reader) [4]: 3.96
binding signal (plate reader) [5]: 3.72
binding signal (plate reader) [6]: 0.405
binding signal (plate reader) [7]: 0.123
binding signal (plate reader) [8]: 3.96
binding signal (plate reader) [9]: 4
binding signal (plate reader) [10]: 3.91
binding signal (plate reader) [11]: 3.54
binding signal (plate reader) [12]: 3.99
binding signal (plate reader) [13]: 3.9
binding signal (plate reader) [14]: 3.88
binding signal (plate reader) [15]: 3.88
binding signal (plate reader) [16]: 3.92
binding result [17]: no binding
fold fluorescence intensity over no antibody [18]: > 2 fold
fold fluorescence intensity over no antibody [19]: ≥ 2 fold
EC50 [20]: 0.01 µg/mL and ~0.06 nM
fold decrease in fluorescence intensity on AQP3 siRNA cells against control siRNA cells [21]: ~2 fold
B1: BC-B10 (IgG) (antibody, V domains shown)
VH: QSVEESGGRLVTPGAPLTLTCTVSRFSLSSYAMTWVRQAPGKGLEWIGIINNDVISSTWYASWVKGRFTISKTSTTMELKMTSLTTEDTATYFCARGGTSGYDIWGPGTLVTVSS
VL: AIKMTQTPSPVSAAVGGTVTINCQSSPSVYKNYLSWYQQKPGQPPKLLIYGASTLASGVPSRFKGSGSGTQFTLTISDVQCDDAATYYCAGGYIGSRDIFSFGGGTEVVVK
notes: also called anti AQP3 antibody BC-B10

binding signal (plate reader) [1]: 3.94
binding signal (plate reader) [2]: 0.824
binding signal (plate reader) [3]: 3.99
binding signal (plate reader) [4]: 3.94
binding signal (plate reader) [5]: 0.733
binding signal (plate reader) [6]: 0.053
binding signal (plate reader) [7]: 0.048
binding signal (plate reader) [8]: 3.9
binding signal (plate reader) [9]: 3.9
binding signal (plate reader) [10]: 3.16
binding signal (plate reader) [11]: 0.627
binding signal (plate reader) [12]: 3.92
binding signal (plate reader) [13]: 2.65
binding signal (plate reader) [14]: 3.8
binding signal (plate reader) [15]: 3.76
binding signal (plate reader) [16]: 3.75
binding result [17]: no binding
EC50 [20]: 0.01 µg/mL and ~0.06 nM
binding result [22]: binds
B2: BC-H9 (IgG) (antibody, V domains shown)
VH: B1 VH with V3L, A15T, R25G, S29Y, S30T, T34G, V54G, E78D, S115L
VL: B1 VL with I2Q, K3G, M4L, S26G, P41A, I94R, R97S, S101A
notes: also called anti AQP3 antibody BC-H9

decrease in H2O2 uptake in PAM212 cells against no antibody control [23]: ~2 fold
binding signal (plate reader) [1]: 3.98
binding signal (plate reader) [2]: 2.02
binding signal (plate reader) [3]: 4
binding signal (plate reader) [4]: 3.96
binding signal (plate reader) [5]: 2.23
binding signal (plate reader) [6]: 0.135
binding signal (plate reader) [7]: 0.097
binding signal (plate reader) [8]: 3.92
binding signal (plate reader) [9]: 4
binding signal (plate reader) [10]: 3.44
binding signal (plate reader) [11]: 0.915
binding signal (plate reader) [12]: 3.96
binding signal (plate reader) [13]: 3.83
binding signal (plate reader) [14]: 3.79
binding signal (plate reader) [15]: 3.69
binding signal (plate reader) [16]: 3.87
binding result [17]: no binding
fold fluorescence intensity over no antibody [18]: > 2 fold
fold fluorescence intensity over no antibody [19]: ≥ 2 fold
EC50 [20]: 0.01 µg/mL and ~0.06 nM
B3: SC-B6 (IgG) (antibody, V domains shown)
VH: B1 VH with E4K, R25G, S29N, S30N, V54G, T69I, M77V, E78D, S115L
VL: B1 VL with I2Q, K3G, M4P, G67R
notes: also called anti AQP3 antibody SC-B6
